Laboratory results: patent US20240174744A1 (SCIRHOM, published 2024)
Numbering of substitutions follows the chain as printed.

Target: T1, hiR2-FL-P533-T7 (human iRhom2 full length with deletion of P533, 3 x T7 tag) (human, UniProt Q6PJF5 1-856)
T1 construct: The change is a deletion of one residue, not a substitution
T1 sequence: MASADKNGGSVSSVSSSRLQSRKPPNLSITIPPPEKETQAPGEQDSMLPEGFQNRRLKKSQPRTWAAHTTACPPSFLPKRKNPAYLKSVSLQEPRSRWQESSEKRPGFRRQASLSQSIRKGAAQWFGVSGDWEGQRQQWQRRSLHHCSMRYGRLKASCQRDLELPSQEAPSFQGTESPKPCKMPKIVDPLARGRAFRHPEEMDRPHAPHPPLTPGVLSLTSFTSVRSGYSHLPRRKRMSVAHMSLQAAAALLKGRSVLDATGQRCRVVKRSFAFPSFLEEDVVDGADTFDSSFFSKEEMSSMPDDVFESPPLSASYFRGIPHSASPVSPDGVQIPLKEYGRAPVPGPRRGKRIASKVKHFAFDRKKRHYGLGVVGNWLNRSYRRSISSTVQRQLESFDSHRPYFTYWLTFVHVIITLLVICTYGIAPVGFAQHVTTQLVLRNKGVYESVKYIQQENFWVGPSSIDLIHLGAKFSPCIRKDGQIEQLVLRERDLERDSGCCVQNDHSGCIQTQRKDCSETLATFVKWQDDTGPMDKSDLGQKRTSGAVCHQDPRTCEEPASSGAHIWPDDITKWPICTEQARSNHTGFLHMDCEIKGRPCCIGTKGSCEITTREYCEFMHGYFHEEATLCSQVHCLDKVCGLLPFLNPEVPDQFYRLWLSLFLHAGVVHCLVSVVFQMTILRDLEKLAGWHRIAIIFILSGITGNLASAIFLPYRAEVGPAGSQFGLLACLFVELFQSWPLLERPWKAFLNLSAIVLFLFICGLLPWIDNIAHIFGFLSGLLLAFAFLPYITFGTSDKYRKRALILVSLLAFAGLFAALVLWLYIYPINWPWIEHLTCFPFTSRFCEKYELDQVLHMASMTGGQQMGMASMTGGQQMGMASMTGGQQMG
Test: FACS on cells of the row P533-, vs human iR2 wild type = 100%
Text: In brief, immortalized MEF-DKO-hiR2-FL-WT-T7 cells, MEF-DKO-miR2-FL-WT-T7 cells and MEF-DKO-hiR2-FL-R441K-T7, MEF-DKO-hiR2-FL-K443R-T7, MEF-DKO-hiR2-FL-V459I-T7, MEF-DKO-hiR2-FL-G481Q-T7, MEF-DKO-hiR2-FL-L488R-T7, MEF-DKO-hiR2-FL-L493I-T7, MEF-DKO-hiR2-FL-D496T-T7, MEF-DKO-hiR2-FL-H505R-T7, MEF-DKO-hiR2-FL-Q512L-T7, MEF-DKO-hiR2-FL-R513K-T7, MEF-DKO-hiR2-FL-D528N-T7, MEF-DKO-hiR2-FL-P533-T7, MEF-DKO-hiR2-FL-M534S-T7, MEF-DKO-hiR2-FL-G540S-T7, MEF-DKO-hiR2-FL-R543Q-T7, MEF-DKO-hiR2-FL-T544P-T7, MEF-DKO-hiR2-FL-G546A-T7, MEF-DKO-hiR2-FL-A547V-T7, MEF-DKO-hiR2-FL-R582Q-T7, MEF-DKO-hiR2-FL-F588L-T7, MEF-DKO-hiR2-FL-M591I-T7, MEF-DKO-hiR2-FL-E594K-T7, MEF-DKO-hiR2-FL-E626D-T7, MEF-DKO-hiR2-FL-L657I-T7, and MEF-DKO-hiR2-FL-H835Y-T7 cells were harvested with 10 mM EDTA in PBS, washed and resuspended in FACS buffer (PBS, 3% FBS, 0.05% sodium azide), and seeded in Nunc U-bottom 96-well plates (Thermo Fisher Scientific, USA) at approximately 3×10⁵ cells per well. To pellet cells and remove supernatants, the plates were centrifuged at 1,500 rpm and 4° C. for 3 minutes. For primary staining, cells were resuspended in 100 μl per well of either FACS buffer alone (controls) or the purified antibodies 3, 5, 16, 22, 34, 42, 43, 44, 48, and 50 of the present disclosure at 3 μg/ml FACS buffer and incubated on ice for 1 hour. Afterwards, plates were centrifuged at 1,500 rpm and 4° C. for 3 minutes and washed twice with 200 μl per well of FACS buffer. For secondary staining, cells were spun down and resuspended in 100 μl per well of PE-conjugated goat anti-mouse IgG F(ab′)2 detection fragment (Dianova, Germany) diluted 1:100 in FACS buffer. Protected from light, the cell suspensions were incubated on ice for 1 hour. Plates were then centrifuged at 1,500 rpm and 4° C. for 3 minutes and washed three times with 200 μl per well of FACS buffer. Finally, cells were resuspended in 150 μl per well of FACS buffer and analyzed using a BD Accuri™ C6 Plus flow cytometer (Becton Dickinson, Germany).

B1: antibody 43 (antibody, V domains shown)
VH: QVALKESGPGILQPSQTLSLTCSFSGFSLSTFGMGVGWIRQSSGKGLEWLANIWWDDDKYYNPALKSRLTISKDASKNQAFLKIANVDTADTATYYCARIGNYGSNYWYFDVWGTGTTVTVSS
VL: QIVLTQSPAIMSASPGERVTMTCSANSRISYMYWYQQKPGSSPRLLIYDTSNLASGVPVRFSGSGSGTSYSLTISRMEAEDAATYNCQQWSSYPLTFGAGTKLELK
notes: Mouse IgG, kappa light chain; also called clone #43
grade of loss of binding vs wild type: 3 grade (3 => 95% loss of binding vs wild type)

B2: antibody 44 (antibody, V domains shown)
VH: B1 VH with A3T, S42P, G44E, N52H, A75T, A80I, A85T, D91E, A98S
VL: QIVLTQSPAVMSASPGEKVTMTCTASSSVYYMYWYQQTPGSSPRLLIYDTSNLASGVPVRFSGSGSGTSYSLTISRMEAEDAATYYCQQWNTYPLTFGAGTKLELK
notes: Mouse IgG, kappa light chain; also called clone #44; m44
grade of loss of binding vs wild type: 3 grade (3 => 95% loss of binding vs wild type)

B3: antibody 16 (antibody, V domains shown)
VH: QVTLKESGPGILQPSQTLSLTCSFSGFSLSTFALGVGWIRQPSGRGLEWLAHIWWDDDKYYNPALKSRLTISKDTSKNHVFLKIANVDTADTATYYCARITTYYYGMDYWGQGTSVTVSS
VL: DIVLSQSPATLSVTPGDSVSLFCRASQSIGNHLHWYQQESHASPRLLIKYASQSISGIPSRFSGSGSGTDFTLSINSVETEDFGMYFCQQSYNWPLTFGAGTKLELK
notes: Mouse IgG, kappa light chain; also called clone #16; m16
grade of loss of binding vs wild type: 3 grade (3 => 95% loss of binding vs wild type)

B4: antibody 5 (antibody, V domains shown)
VH: B1 VH with A3T, S42P, N52H, D58E, P63S, D74A, A75T, G101S, D111N
VL: QVVLTQSPALMSASPGEKVTMTCSAGSSVSCMYWYQQKPGSSPRVLIYDTSNLASGVPARFTGSGSGTSYSLTISRMEAEDAASYYCQQWNSYPLTFGAGTKLELK
notes: Mouse IgG, kappa light chain; also called clone #5; purified antibody 5
grade of loss of binding vs wild type: 3 grade (3 => 95% loss of binding vs wild type)

B5: antibody 22 (antibody, V domains shown)
VH: B1 VH with A3T, S42P, N52H, D58E, P63S, D74A, A75T, A80V, G101S, D111N
VL: B4 VL with C31Y, S84T
notes: Mouse IgG, kappa light chain; also called clone #22; m22
grade of loss of binding vs wild type: 3 grade (3 => 95% loss of binding vs wild type)

B6: antibody 42 (antibody, V domains shown)
VH: B1 VH with A3T, F24L, M34R, S42P, N52H, D58E, A75T, A80V, K83R, G101Q
VL: B1 VL with Q1L, R18K, S24G, N26T, Y33F, L45V, M77V, A82V, N86Y, S91N
notes: Mouse IgG, kappa light chain; also called clone #42; m42
grade of loss of binding vs wild type: 3 grade (3 => 95% loss of binding vs wild type)

B7: antibody 3 (antibody, V domains shown)
VH: QVTLKESGPGILQPSQTLSLTCSFSGFSLTTFAMGIGWVRQPSGKGLEWLAHIWWDGEKYNNPVLKSRLTISKDTSKNQVFLRIANVDTPDTATYYCARISSIYYIIDNWGQGTSVTVSS
VL: B3 VL with S5T, D17H, F22S, G30S, H32N, Q38K, E39K, A42E, A51V
notes: Mouse IgG, kappa light chain; also called clone #3; purified antibody 3
grade of loss of binding vs wild type: 3 grade (3 => 95% loss of binding vs wild type)

B8: antibody 34 (antibody, V domains shown)
VH: QVTLKESGPGILQPSQTLSLTCSFSGFSLSTFSLGVGWIRQSSGKGLEWLAHIWWDDEKYYNPALKSRLTISKDTSKNQVFLKIANVDAADTATYYCARAYYSKSYYALDYWGQGTSVTVSS
VL: DIQMTQSPSSLSASLGERVSLTCRASQEISGYLSWLQQKPDGTIKRLIYAASTLDSGVPKRFSGSRSGSDYSLAISSLESEDFADYYCLQYANFPFTFGSGTKLEIK
notes: Mouse IgG, kappa light chain; also called clone #34; m34
grade of loss of binding vs wild type: 3 grade (3 => 95% loss of binding vs wild type)
